The conditions of this data set: Aspergillus oryzae (strain ATCC 42149 / RIB 40), pH 7, DSC, MOPS 30 mM, reversible: yes, whole UniProt chain shown; for denaturant m value / denaturant midpoint (higher = more stable) / unfolding free energy: Urea.

B1: Guanyl-specific ribonuclease T1 wild type, P00651 (protein)
chain: MMYSKLLTLTTLLLPTALALPSLVERACDYTCGSNCYSSSDVSTAQAAGYQLHEDGETVGSNSYPHKYNNYEGFDFSVSSPYYEWPILSSGDVYSGGSPGADRVVFNENNQLAGVITHTGASGNNFVECT
For B1, the denaturant m value by setting is: (5 °C) 1.18 kcal/mol/M; (10 °C) 1.18 kcal/mol/M; (15 °C) 1.14 kcal/mol/M; (20 °C) 1.18 kcal/mol/M; (25 °C) 1.17 kcal/mol/M. For the same protein, the “denaturant midpoint (higher = more stable)” value came to 7.04 M (5 °C); 6.7 M (10 °C); 6.43 M (15 °C); 5.71 M (20 °C); 5.2 M (25 °C). Moreover, the unfolding free energy reads like this: (5 °C) 8.32 kcal/mol; (10 °C) 7.87 kcal/mol; (15 °C) 7.34 kcal/mol; (20 °C) 6.72 kcal/mol; (25 °C) 6.09 kcal/mol. Further, the Tm (usually the temperature at which the thermal transition is half complete) (Thermal) turned out to be 50.8 °C. Besides, the “unfolding enthalpy (calorimetric)” value (Thermal) was 96.6 kcal/mol.

For the origin of these results see FireProtDB (doi:10.1021/bi991422s).
